Values quoted from earlier work, collected in article PMC12404997.

Target: RhoA (Homo sapiens) (UniProt P61586)
UniProt P61586, sequence (P61586 1-190): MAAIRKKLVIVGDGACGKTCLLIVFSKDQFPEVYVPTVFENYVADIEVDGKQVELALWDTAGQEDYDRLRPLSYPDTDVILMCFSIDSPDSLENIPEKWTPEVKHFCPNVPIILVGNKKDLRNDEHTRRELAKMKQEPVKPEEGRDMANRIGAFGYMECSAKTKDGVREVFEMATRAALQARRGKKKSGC

Kd: 7 µM
Substance: anillin (from UniProt Q9NQW6)
